Assay [1] concerns the target T1, type I IL-1 receptor on murine EL4 6.1 cells (murine) (UniProt P13504).
T1 sequence (looked up): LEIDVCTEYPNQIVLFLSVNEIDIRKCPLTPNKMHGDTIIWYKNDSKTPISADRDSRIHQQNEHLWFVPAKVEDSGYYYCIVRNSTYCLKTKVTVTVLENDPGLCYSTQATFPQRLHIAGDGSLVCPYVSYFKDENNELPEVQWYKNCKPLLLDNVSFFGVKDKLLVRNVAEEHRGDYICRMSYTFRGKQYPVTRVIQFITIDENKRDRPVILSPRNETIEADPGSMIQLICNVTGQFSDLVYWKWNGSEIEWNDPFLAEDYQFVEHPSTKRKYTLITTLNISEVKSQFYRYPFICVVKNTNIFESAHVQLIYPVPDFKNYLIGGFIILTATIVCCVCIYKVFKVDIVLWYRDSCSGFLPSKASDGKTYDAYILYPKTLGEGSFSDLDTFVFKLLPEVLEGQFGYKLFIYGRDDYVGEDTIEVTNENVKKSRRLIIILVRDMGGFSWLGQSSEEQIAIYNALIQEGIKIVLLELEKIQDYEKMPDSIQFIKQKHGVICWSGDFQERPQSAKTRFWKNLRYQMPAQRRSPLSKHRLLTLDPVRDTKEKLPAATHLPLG
In words: competitive radioligand binding on EL4 6.1 cells, 100x excess of competitor.

Assay [2] concerns the target T2, type I IL-1 receptor on murine EL4 6.1 cells (murine, UniProt P13504 20-576).
T2 construct: whole, on cells; Endogenous receptor on the murine T cell line EL4 6.1; also called type I IL-1Rs; IL-1 receptors on murine EL4 6.1 cells
T2 sequence (looked up): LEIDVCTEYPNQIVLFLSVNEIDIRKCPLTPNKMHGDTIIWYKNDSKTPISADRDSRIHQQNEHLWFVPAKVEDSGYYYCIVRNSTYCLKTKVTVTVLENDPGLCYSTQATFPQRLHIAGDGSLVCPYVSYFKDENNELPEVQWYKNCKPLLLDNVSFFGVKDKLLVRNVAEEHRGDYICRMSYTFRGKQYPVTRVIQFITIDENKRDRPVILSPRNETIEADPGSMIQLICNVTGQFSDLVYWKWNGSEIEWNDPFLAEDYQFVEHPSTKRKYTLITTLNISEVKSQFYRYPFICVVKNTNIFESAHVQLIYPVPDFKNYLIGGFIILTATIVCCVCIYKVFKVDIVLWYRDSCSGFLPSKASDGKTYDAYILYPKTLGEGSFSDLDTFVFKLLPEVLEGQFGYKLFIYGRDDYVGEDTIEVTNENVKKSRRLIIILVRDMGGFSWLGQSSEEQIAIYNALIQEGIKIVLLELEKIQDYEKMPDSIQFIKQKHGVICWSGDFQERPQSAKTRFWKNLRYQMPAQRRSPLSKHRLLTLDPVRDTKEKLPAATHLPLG
In words: competition with [125I] IL-1 beta for type I IL-1R on EL4 6.1 cells. As to the method:
IL-1 beta for binding to type I IL-1 receptors on murine cells. EL46.1 cells were incubated at 4° C. in presence of the sodium azide for 2 hr with and without each of the IL-1ra peptides or with soluble human recombinant interleukin Ira (shrIL-1ra) as a control. Cells were then incubated with [¹²⁵I]hrIL-1, transferred to microfuge tubes containing phthalolate oil, centrifuged and free and bound radioactivity determined. Non-specific binding was determined in the presence of 100× excess concentration of cold hrIL-1 beta.

As to “soluble human recombinant interleukin 1ra (shrIL-1ra) (from UniProt P18510 26-177) (ligand)”, in assay [1], the displacement of [125I] IL-1 beta was > 90%.

B1: IL-1ra peptide 1-35 (SEQ ID NO: 13) (peptide)
peptide: RPSGRKSSKMQAFRIWDVNQKTFYLRNNQLVAGYL
notes: Synthetic peptide representing part of the processed/mature form of human sIL-1ra; also called IL-1ra 1-35; amino terminal IL-1ra peptide
In the case of B1, the binding result in assay [2] is given as “no binding”.
